Substitutions are numbered along the chain they refer to. Blank lines part the entries; values can stand above or below the binder they belong to.
Target: Vδ1 γδ T cell receptor on skin-derived γδ T cells (human)
Assay: cell-based or functional assay

T cell degranulation (EC50 µg/ml - 3 donors): 0.005 µg/mL
B1: 1139_P01_E04 (IgG1) (antibody, V domains shown)
VH: QVQLQQSGPGLVKPSQTLSLTCAISGDSVSSNSAAWNWIRQSPSRGLEWLGRTYYRSKWYNDYAVSVRSRITINPDTSKNQFSLQLNSVTPEDTAVYYCARSWNDAFDIWGQGTTVTVSS
VL: DIVMTQSPSTLSASIGDRVTITCRAGQSISTWLAWYQQKPGKAPKLLIYDASSLESGVPLRFSGSGSGTDFTLTISSLQPEDFATYYCQQSYSTPLTFGGGTKVEIK

T cell degranulation (EC50 µg/ml - 3 donors): 0.001 µg/mL
B2: 1245_P01_G09 (IgG1) (antibody, V domains shown)
VH: QVQLQQSGPGLVKPSQTLSLTCAISGDSVSSNSAAWNWIRQSPSRGLEWLGRTYYGSKWYNEYALSVKSRIIINPDTSKNQFSLQLNSVTPEDTAVYYCARDYYYSMDVWGQGTLVTVSS
VL: B1 VL with D70E, T74A, E81D, L96V, G100Q

T cell degranulation (EC50 µg/ml - 3 donors): 0.002 µg/mL
B3: 1245_P02_G04 (IgG1, made in HEK) (antibody, V domains shown)
VH: QVQLQQSGPGLVKPSQTLSLTCAISGDSVSSKSAAWNWIRQSPSRGLEWLGRTYYRSKWSTDYAASVKSRITINPDTSKNQLSLQLNSVTPEDTAVYYCARTWSGYVDVWGQGTLVTVSS
VL: DIQMTQSPPALSASVGDRVTITCRASQDINDWLAWYQHKPGKAPKLLIYDASSLESGVPSRFSGSGSGTEFTLTISSLQPDDFATYYCQQSYSTPQVTFGQGTRLEIK
Killing assay (EC50 µg/ml - 2 or 3 donors): 0.1 µg/mL

B4: 1252_P01_C08 (IgG1) (antibody, V domains shown)
VH: EVQLLESGGGLVQPGRSLRLSCAASGFTVSSNYMSWVRQAPGKGLEWVSVIYSGGSTYYADSVKGRFTISRDNSKNTLYLQMNSLRAEDTAVYYCASPIELGAFDIWGQGTLVTVSS
VL: SSYELTQPPSVSVAPGKTARITCGGNNIGSQSVHWYQQKPGQAPMLVIYYDSDRPSGIPERFSGSNSGNTATLTISRVEAGDEADYYCQVWDSSSDHVVFGGGTKLTVL
Killing assay (EC50 µg/ml - 2 or 3 donors): 0.02 µg/mL

T cell degranulation (EC50 µg/ml - 3 donors): 0.001 µg/mL
B5: 1245_P01_G06 (IgG1) (antibody, V domains shown)
VH: QVQLVESGGGLVKPGGSLRLSCAASGFTFSDYYMSWIRQAPGKGLEWVSYISSSGSTIYYADSVKGRFTISRDNAKNSLYLQMNSLRAEDTAVYYCARHSWNDAFDVWGQGTLVTVSS
VL: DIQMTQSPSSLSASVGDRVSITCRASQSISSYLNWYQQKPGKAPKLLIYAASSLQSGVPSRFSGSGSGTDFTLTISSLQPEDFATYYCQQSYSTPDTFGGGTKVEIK

B6: 1245_P01_E07 (IgG1) (antibody, V domains shown)
VH: B5 VH with H99V, S100D, W101Y, N102A, V107I
VL: DIQMTQSPSSLSASVGDRVTIACRAGQSIGTYLNWYQQKPGKAPKLLIYVASSLQSGVPSRFSGSGSGTEFTLTISSLQPEDFATYYCQQSYSTLLTFGRGTKVEIK
Killing assay (EC50 µg/ml - 2 or 3 donors): 0.06 µg/mL
